Results: PMC10878280 (Journal of Virology, 2024)

Target: neuraminidase (NA) of A/California/04/2009 (Influenza A virus A/California/04/2009 …, UniProt C3W5S3, strain)
Test: fluorescence imaging with FRAP of labelled antibody on transfected cells
Conditions: one partner purified

B1: CD6 IgG (antibody, V domains shown)
VH: QVKLQESGGGLVQPKGSLKLSCAASGFTFNTYAMNWVRQAPGKGLEWVARIRSKSNNYATFYADSVKDRFTISRDDSQSMLYLQMHNLKTDDTAMYYCVRPSIYYYASGYLDVWGAGTTVTVSS
VL: QIVLSQSPAILSASPGEKVTMTCRTSSSVSYMHWYQQKPGSSPKPWIYATSNLASGVPFRFSGSGSGTSYSLTISRVEAEDAATYYCQQWNSNPPTFGGGTKLEIK
notes: not shown: ybbR, C-terminal, kept; copies: 2 + 2
  binding result: binds
